Laboratory results: paper PMC12468009, “Development of a QCM-D-Based Aptasensor for the Real-Time Detection of β-Lactoglobulin”

Target: T1, beta-lactoglobulin (β-LG) (bovine? (cow's milk), UniProt P02754 17-178)
T1 sequence: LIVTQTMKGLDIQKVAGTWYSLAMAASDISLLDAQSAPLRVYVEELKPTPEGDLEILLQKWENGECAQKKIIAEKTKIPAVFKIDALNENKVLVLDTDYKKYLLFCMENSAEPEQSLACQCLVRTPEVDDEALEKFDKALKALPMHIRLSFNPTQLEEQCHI
Assay: dot blot; 100 µg β-LG on nitrocellulose, 400 pmol aptamer in PBS, 37 °C; Dot blot: PBS, 37 °C, 1 h, membrane blocked with 5% BSA/0.01% Tween 20; QCM-D: β-LG in PBS pH 3.5, 37 °C, aptamer 0.5 µM in TRIS with 0.1% BSA for immobilization; PBS (pH 7.4 stock) contains CaCl2 and MgCl2
Settings: protein: native; tags: none; chain copies: 2; label: biotin; predicted secondary structure only

B1: Apt 356 (ssDNA)
DNA: GCCTGTTGTGAGCCTCCTAACCTGGTGTGCAAGGTGGACTCTCTTTATCTTGTTGTCAGTCTCATCACCGCATGCTTATTCTTGTCTCCC
modifications: 5'-biotin
B1: binds.
